Where two headings read alike, the source gives them in different places.
Columns and labels:
human FcγRIIIa(F) = target: T1, human FcγRIIIa(F) (human, UniProt P08637 17-208, limits assumed); assay: SPR (Biacore), antibody captured on Protein L, human FcγR as analyte, pH 7.4, 25 C
T1 construct: also called hFcgRIIIa(F); hFcgRIIIa

mouse FcγRIV = target: T2, mouse FcγRIV (mouse); assay: SPR (Biacore), antibody captured on Protein L, mouse FcγR as analyte, pH 7.4, 25 C
T2 construct: Bought soluble receptor; also called mFcgRIV; mFcgR IV
T2 sequence (A0A0B4J1G0 21-203): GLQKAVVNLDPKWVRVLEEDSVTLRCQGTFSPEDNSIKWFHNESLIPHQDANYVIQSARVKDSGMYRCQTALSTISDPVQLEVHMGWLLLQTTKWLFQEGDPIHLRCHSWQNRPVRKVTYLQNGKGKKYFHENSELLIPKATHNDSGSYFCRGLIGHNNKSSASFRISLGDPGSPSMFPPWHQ

[1] = target: T3, human FcRn (soluble human FcRn complexed with β2-microglobulin) (human, UniProt P61769 21-119); assay: Biacore SPR, pH 7.0, 25 C; antibody captured by Protein L, human FcRn as analyte
T3 construct: also called hFcRn
T3 sequence (chain, as listed by the source limits assumed, chain 1 of 2): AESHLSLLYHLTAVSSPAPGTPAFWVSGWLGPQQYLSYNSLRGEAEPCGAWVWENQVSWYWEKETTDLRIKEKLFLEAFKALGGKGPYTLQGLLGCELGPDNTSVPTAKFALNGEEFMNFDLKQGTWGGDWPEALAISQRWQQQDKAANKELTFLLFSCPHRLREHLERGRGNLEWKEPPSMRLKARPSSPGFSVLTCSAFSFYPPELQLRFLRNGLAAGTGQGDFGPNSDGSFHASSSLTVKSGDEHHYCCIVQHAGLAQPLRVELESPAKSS
T3 sequence (P61769 21-119 limits assumed, chain 2 of 2): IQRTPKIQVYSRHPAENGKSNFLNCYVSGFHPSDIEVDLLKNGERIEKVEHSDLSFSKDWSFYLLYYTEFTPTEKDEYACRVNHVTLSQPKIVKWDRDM

[2] = target: T3, human FcRn (soluble human FcRn …); assay: as above; remark: listed apart in the source
human FcRn [3] = target: T4, human FcRn (human); assay: SPR (Biacore), pH 7.0, 25 C; antibody captured on Protein L, human FcRn injected
T4 construct: Soluble human FcRn complexed with beta2-microglobulin; also called hFcRn; soluble human FcRn complexed with β2-microglobulin

human FcγRIIb [4] = target: T5, human FcγRIIb (human, UniProt P31994 43-217, limits assumed); assay: SPR KD for FcγRIIb of parent IL6R-B3/IL6R-L divided by that of this variant
T5 construct: also called FcγIIB; hFcgRIIb
T5 sequence: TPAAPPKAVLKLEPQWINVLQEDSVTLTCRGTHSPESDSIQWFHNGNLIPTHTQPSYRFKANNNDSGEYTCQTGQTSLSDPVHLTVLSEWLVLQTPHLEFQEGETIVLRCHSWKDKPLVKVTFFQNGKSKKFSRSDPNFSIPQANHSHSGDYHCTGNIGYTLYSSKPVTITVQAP

human FcγRIIb [5] = target: T5, human FcγRIIb; assay: ratio of this variant's SPR KD for FcγRIIaR to its KD for FcγRIIb
human FcγRIIb [6] = target: T5, human FcγRIIb; assay: ratio of this variant's SPR KD for FcγRIIaH to its KD for FcγRIIb
human FcγRIIa type H = target: T6, human FcγRIIa type H (human, UniProt P12318 36-217); assay: SPR (Biacore), captured antibody, FcγR as analyte, 25 C
T6 construct: also called FcγRIIaH; FcγRIIa(H)
T6 sequence: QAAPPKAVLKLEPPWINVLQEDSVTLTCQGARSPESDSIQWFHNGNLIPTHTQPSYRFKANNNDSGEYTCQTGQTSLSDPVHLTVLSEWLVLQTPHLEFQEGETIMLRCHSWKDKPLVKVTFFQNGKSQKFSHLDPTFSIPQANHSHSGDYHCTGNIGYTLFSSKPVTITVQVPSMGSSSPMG

human FcRn [7] = target: T7, human FcRn (human); assay: SPR (Biacore), pH 7.0, 25 C, antibody captured by Protein L, human FcRn as analyte
T7 construct: also called hFcRn; soluble human FcRn complexed with β2-microglobulin

mouse FcγRIII = target: T8, mouse FcγRIII (mouse, UniProt P08508 31-215); assay: SPR (Biacore), protein L capture, pH 7.4, 25 C
T8 construct: Bought; also called mFcgRIII
T8 sequence (looked up): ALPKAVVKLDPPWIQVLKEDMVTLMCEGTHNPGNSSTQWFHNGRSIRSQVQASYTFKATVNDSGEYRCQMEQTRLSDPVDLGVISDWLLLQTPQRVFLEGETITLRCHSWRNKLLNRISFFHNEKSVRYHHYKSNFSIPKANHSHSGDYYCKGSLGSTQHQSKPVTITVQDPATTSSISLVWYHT

mouse FcγRI = target: T9, mouse FcγRI (mouse, UniProt P26151 25-297); assay: SPR (Biacore), protein L capture, pH 7.4, 25 C
T9 construct: Bought; also called mFcgRI
T9 sequence (looked up): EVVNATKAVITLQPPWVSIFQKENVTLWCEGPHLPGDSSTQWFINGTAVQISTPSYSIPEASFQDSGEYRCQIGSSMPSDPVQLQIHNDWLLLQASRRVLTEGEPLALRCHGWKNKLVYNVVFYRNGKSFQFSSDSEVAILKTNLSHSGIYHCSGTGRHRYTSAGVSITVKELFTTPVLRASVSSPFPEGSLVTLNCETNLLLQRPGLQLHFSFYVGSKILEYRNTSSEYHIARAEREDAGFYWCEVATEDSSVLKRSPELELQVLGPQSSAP

mouse FcγRIIb = target: T10, mouse FcγRIIb (mouse, UniProt P08101 40-217, limits assumed); assay: SPR (Biacore), protein L capture, pH 7.4, 25 C
T10 construct: Bought; also called mFcgRIIb
T10 sequence (looked up): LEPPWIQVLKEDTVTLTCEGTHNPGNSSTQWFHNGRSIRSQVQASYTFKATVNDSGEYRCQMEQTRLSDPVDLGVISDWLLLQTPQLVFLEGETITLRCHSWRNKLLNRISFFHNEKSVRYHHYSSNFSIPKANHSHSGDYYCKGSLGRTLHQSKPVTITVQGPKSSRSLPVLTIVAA

human FcγRIIb [8] = target: T11, human FcγRIIb (human, UniProt P31994 43-217, limits assumed); assay: SPR (Biacore), antibody captured, FcγR as analyte
T11 construct: also called FcgRIIb; FcγIIB
T11 sequence: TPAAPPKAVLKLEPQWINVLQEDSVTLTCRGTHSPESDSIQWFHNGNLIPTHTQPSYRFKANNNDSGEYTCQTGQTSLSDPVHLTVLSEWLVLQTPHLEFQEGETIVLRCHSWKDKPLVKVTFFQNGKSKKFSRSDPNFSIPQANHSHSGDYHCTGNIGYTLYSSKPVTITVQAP

T1 sequence (P08637 other isoform, or with tags, fused parts or gaps limits assumed): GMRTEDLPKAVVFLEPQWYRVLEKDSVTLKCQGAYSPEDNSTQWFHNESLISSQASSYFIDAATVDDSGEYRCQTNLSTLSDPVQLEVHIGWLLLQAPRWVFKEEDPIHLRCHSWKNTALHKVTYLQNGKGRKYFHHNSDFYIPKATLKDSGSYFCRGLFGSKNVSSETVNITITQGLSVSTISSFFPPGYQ

B1: VH3/L(WT)-IgG1-F21 (antibody)
heavy: QVQLQESGPGLVKPSETLSLTCAVSGHSISHDHAWSWVRQPPGEGLEWIGFISYSGITNYNPSLQGRVTISRDNSKNTLYLQMNSLRAEDTAVYYCARSLARTTAMDYWGEGTLVTVSSASTKGPSVFPLAPSSKSTSGGTAALGCLVKDYFPEPVTVSWNSGALTSGVHTFPAVLQSSGLYSLSSVVTVPSSSLGTQTYICNVNHKPSNTKVDKKVEPKSCDKTHTCPPCPAPELLGGPSVFLFPPKPKDTLYISRTPEVTCVVVDVSHEDPEVKFNWYVDGVEVHNAKTKPREEQYNSTYRVVSVLTPLHQDWLNGKEYKCKVSNKALPAPIEKTISKAKGQPREPQVYTLPPSRDELTKNQVSLTCLVKGFYPSDIAVEWESNGQPENNYKTTPPVLDSDGSFFLYSKLTVDKSRWQQGNVFSCSVMHEALHYHYTQKSLSLSP
light: not shown
notes: copies: 2 + 2
Human FcγRIIIa(F)
  BINDING AMOUNT (RU): 147 RU
Mouse FcγRIV
  BINDING AMOUNT (RU): 242 RU

B2: IgG1-F207 (antibody, name in EU numbering)
heavy: QVQLQESGPGLVKPSETLSLTCAVSGHSISHDHAWSWVRQPPGEGLEWIGFISYSGITNYNPSLQGRVTISRDNSKNTLYLQMNSLRAEDTAVYYCARSLARTTAMDYWGEGTLVTVSSASTKGPSVFPLAPSSKSTSGGTAALGCLVKDYFPEPVTVSWNSGALTSGVHTFPAVLQSSGLYSLSSVVTVPSSSLGTQTYICNVNHKPSNTKVDKKVEPKSCDKTHTCPPCPAPELLGGPSVFLFPPKPKDTLYISRTPEVTCVVVDVSHEDPEVKFNWYVDGVEVHNAKTKPREEQYNSTYRVVSVLKVLHQDWLNGKEYKCKVSNKALPAPIEKTISKAKGQPREPQVYTLPPSRDELTKNQVSLTCLVKGFYPSDIAVEWESNGQPENNYKTTPPVLDSDGSFFLYSKLTVDKSRWQQGNVFSCSVMHEALHYHYTQKSLSLSP
light: not shown
notes: VH3-IgG1 Fc variant; EU numbering
[1]
  Kd: 940 nM

B3: IgG1-F79 (antibody, name in EU numbering)
heavy: QVQLQESGPGLVKPSETLSLTCAVSGHSISHDHAWSWVRQPPGEGLEWIGFISYSGITNYNPSLQGRVTISRDNSKNTLYLQMNSLRAEDTAVYYCARSLARTTAMDYWGEGTLVTVSSASTKGPSVFPLAPSSKSTSGGTAALGCLVKDYFPEPVTVSWNSGALTSGVHTFPAVLQSSGLYSLSSVVTVPSSSLGTQTYICNVNHKPSNTKVDKKVEPKSCDKTHTCPPCPAPELLGGPSVFLFPPKPKDTLMITREPEVTCVVVDVSHEDPEVKFNWYVDGVEVHNAKTKPREEQYNSTYRVVSVLTVLHQDWLNGKEYKCKVSNKALPAPIEKTISKAKGQPREPQVYTLPPSRDELTKNQVSLTCLVKGFYPSDIAVEWESNGQPENNYKTTPPVLDSDGSFFLYSKLTVDKSRWQQGNVFSCSVMHEALHAHYTQKSLSLSP
light: not shown
notes: as for B2
[2]
  Kd: 5900 nM

B4: IgG1-F722 (antibody)
heavy: QVQLQESGPGLVKPSETLSLTCAVSGHSISHDHAWSWVRQPPGEGLEWIGFISYSGITNYNPSLQGRVTISRDNSKNTLYLQMNSLRAEDTAVYYCARSLARTTAMDYWGEGTLVTVSSASTKGPSVFPLAPSSKSTSGGTAALGCLVKDYFPEPVTVSWNSGALTSGVHTFPAVLQSSGLYSLSSVVTVPSSSLGTQTYICNVNHKPSNTKVDKKVEPKSCDKTHTCPPCPAPELLGGDSVFLFPPKPKDTLYISRTPEVTCVVVDVSHEDPEVKFNWYVDGVEVHNAKTKPREEQYNSTYRVVSVLTVLHQDWLNGKEYKCKVSNKGLPAPIEKTISKAKGQPREPQVYTLPPSRDELTKNQVSLTCLVKGFYPSDIAVEWESNGQPENNYKTTPPVLDSDGSFFLYSKLTVDKSRWQQGNVFSCSVMHEALHYHYTQKSLSLSP
light: not shown
notes: Substitutions by EU numbering; copies: 2 + 2
Human FcRn [3]
  Kd: 270 nM

B5: IL6R-BP084/IL6R-L (antibody, human IgG1)
heavy: QVQLQESGPGLVKPSETLSLTCAVSGHSISHDHAWSWVRQPPGEGLEWIGFISYSGITNYNPSLQGRVTISRDNSKNTLYLQMNSLRAEDTAVYYCARSLARTTAMDYWGEGTLVTVSSASTKGPSVFPLAPSSKSTSGGTAALGCLVKDYFPEPVTVSWNSGALTSGVHTFPAVLQSSGLYSLSSVVTVPSSSLGTQTYICNVNHKPSNTKVDKKVEPKSCDKTHTCPPCPAPELLGGDSVFLFPPKPKDTLMISRTPEVTCVVVDVSHEDPEVKFNWYVDGVEVHNAKTKPREEQYNSTYRVVSVLTVLHQDWLNGKEYKCKMSNKALPKPIEKTISKAKGQPREPQVYTLPPSRDELTKNQVSLTCLVKGFYPSDIAVEWESNGQPENNYKTTPPVLDSDGSFFLYSKLTVDKSRWQQGNVFSCSVMHEALHNHYTQESLSLSP
light: DIQMTQSPSSLSASVGDRVTITCRASQDISSYLNWYQQKPGKAPKLLIYYTSRLHSGVPSRFSGSGSGTDFTFTISSLQPEDIATYYCQQGNTLPYTFGQGTKVEIK
notes: copies: 2 + 2
Human FcγRIIb [4]
  KD(IIb) of the parent polypeptide/KD(IIb) of the altered polypeptide: 5.1
Human FcγRIIb [5]
  KD (IIaR)/KD (IIb): 14.3
Human FcγRIIb [6]
  KD (IIaH)/KD (IIb): 47.6
Human FcγRIIa type H
  Kd: 2400 nM

B6: F1113 (antibody, name in EU numbering)
heavy: QVQLQESGPGLVKPSETLSLTCAVSGHSISHDHAWSWVRQPPGEGLEWIGFISYSGITNYNPSLQGRVTISRDNSKNTLYLQMNSLRAEDTAVYYCARSLARTTAMDYWGEGTLVTVSSASTKGPSVFPLAPSSKSTSGGTAALGCLVKDYFPEPVTVSWNSGALTSGVHTFPAVLQSSGLYSLSSVVTVPSSSLGTQTYICNVNHKPSNTKVDKKVEPKSCDKTHTCPPCPAPELLGGPSVFLFPPKPKDTLYISRTPEVTCVVVDVSHEDPEVKFNWYVDGVEVHNAKTKPREEQYNSTYRVVSVLTVLHQDWLNGKEYKCKVSNKALPAPIEKTISKAKGQPREPQVYTLPPSRDELTKNQVSLTCLVKGFYPSDIAVEWESNGQPENNYKTTPPVLDSDGSFFLYSKLTVDKSRWQQGNVFSCSVMHEALHYHVTQKDLSLSP
light: not shown
notes: copies: 2 + 2
Human FcRn [7]
  Kd: 118 nM

B7: mPM1-mIgG1-mF40 (antibody)
heavy: DVQLQESGPVLVKPSQSLSLTCTVTGYSITSDHAWSWIRQFPGNKLEWMGYISYSGITTYNPSLKSRISITRDTSKNQFFLQLNSVTTGDTSTYYCARSLARTTAMDYWGQGTSVTVSSAKTTPPSVYPLAPGSAAQTNSMVTLGCLVKGYFPEPVTVTWNSGSLSSGVHTFPAVLQSDLYTLSSSVTVPSSTWPSETVTCNVAHPASSTKVDKKIVPRDCGCKPCICTVKEVSKVFIFPPKPKDVLYITLEPKVTCVVVDISKDDPEVQFSWFVDDVEVHTAQTQPREEQFNSTFRSVSELPIMHQDWLNGKEFKCRVNSAAFPAPIEKTISKTKGRPKAPQVYTIPPPKEQMAKDKVSLTCMITDFFPEDITVEWQWNGQPAENYKNTQPIMDTDGSYFVYSKLNVQKSNWEAGNTFTCSVLHEGLHWHHTEKSLSHSPGK
light: DIQMTQTTSSLSASLGDRVTISCRASQDISSYLNWYQQKPDGTIKLLIYYTSRLHSGVPSRFSGSGSGTDYSLTINNLEQEDIATYFCQQGNTLPYTFGGGTKLEIKRADAAPTVSIFPPSSEQLTSGGASVVCFLNNFYPKDINVKWKIDGSERQNGVLNSWTDQDSKDSTYSMSSTLTLTKDEYERHNSYTCEATHKTSTSPIVKSFNRNEC
notes: copies: 2 + 2
Mouse FcγRIII
  binding result: no binding
Mouse FcγRI
  binding result: no binding
Mouse FcγRIIb
  binding result: no binding

B8: GpH7-B3 D270W / GpL16-k0 (antibody, human IgG1)
heavy: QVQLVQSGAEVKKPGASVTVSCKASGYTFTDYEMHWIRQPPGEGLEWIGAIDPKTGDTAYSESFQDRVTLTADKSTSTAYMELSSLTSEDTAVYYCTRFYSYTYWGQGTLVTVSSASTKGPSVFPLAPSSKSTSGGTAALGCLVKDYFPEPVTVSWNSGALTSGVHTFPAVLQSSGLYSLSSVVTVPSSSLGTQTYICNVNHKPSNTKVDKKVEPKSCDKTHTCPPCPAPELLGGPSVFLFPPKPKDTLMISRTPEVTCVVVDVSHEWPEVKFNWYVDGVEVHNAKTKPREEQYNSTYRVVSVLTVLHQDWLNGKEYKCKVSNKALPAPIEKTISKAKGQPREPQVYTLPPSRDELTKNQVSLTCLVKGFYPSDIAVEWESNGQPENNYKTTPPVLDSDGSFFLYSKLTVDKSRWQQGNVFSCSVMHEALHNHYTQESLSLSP
light: DIVMTQSPLSLPVTPGEPASISCQASESLVHSNRNTYLHWYLQKPGQSPQLLIYKVSNRFSGVPDRFSGSGSGTDFTLKISRVEAEDVGVYYCSQNTHVPPTFGQGTKVEIE
notes: B3 variant: anti-glypican-3 IgG1 (constant region B3 = G1d with K439E) with one substitution, EU numbering; also called B3 variant D270W; copies: 2 + 2
Human FcγRIIb [8]
  relative binding activity (amount bound / amount bound by GpH7-B3/GpL16-k0 x100): -2 % of GpH7-B3/GpL16-k0
